Measured values: the DeepSol protein solubility set

Experiment: soluble on expression in E. coli; label from the status in PepcDB or PDB records

Soluble on expression in E. coli, soluble:
MSLSFTPLHTTSEAFIEKALPWLEDRYFHIAYLNPNGYTAYPQGAFRHYLAFGSEAAIHVSDATRVFETWNEIKKGYTNEWIFVFASYDGKNSVEQLHTSKEAGIAFAAATFFIPEHVWEIQPDGILIHKGSGSSLVTEIQHAEPSTPVQQSDIFVKQVVSKESYFNAFDELQQIIAQGDAYEINYCIPFTAKGNISPAATYQRLNKKTPMPFSVYYKFNTEYILSASPERFIKKTGDTIISQPIKGTSKRGKSKAEDEMLKQQLGTSEKEQSENTMIVDLVRNDLSRTAVAGSVCVPELSGLYTFPNVHQLISTVQSTIDPACSSIDVIQQAFPMGSMTGAPKVNVMKFIDRIESMARGPFSGTVGYMDPHDNFDFNVLIRSIFYNSATQELFMEAGSAITSYAKAETEYEECLLKITPMIHILNNQEGHHHHHH
RKMFRALMPALEELTFDPSSAHPSLVVSSSGRRVECSEQKAPPAGEDPRQFDKAVAVVAHQQLSEGEHYWEVDVGDKPRWALGVIAAEAPRRGRLHAVPSQGLWLLGLREGKILEAHVEAKEPRALRSPERRPTRIGLYLSFGDGVLSFYDASDADALVPLFAFHERLPRPVYPFFDVCWHDKGKNAQPLLLV
MGSSHHHHHHGSLSKQIPLGIYEKALPAGECWLERLQLAKTLGFDFVEMSVDETDERLSRLDWSREQRLALVNAIVETGVRVPSMCLSAHRRFPLGSEDDAVRAQGLEIMRKAIQFAQDVGIRVIQLAGYDVYYQEANNETRRRFRDGLKESVEMASRAQVTLAMEIMDYPLMNSISKALGYAHYLNNPWFQLYPDIGNLSAWDNDVQMELQAGIGHIVAVHVKDTKPGVFKNVPFGEGVVDFERCFETLKQSGYCGPYLIEMWSETAEDPAAEVAKARDWVKARMAKAGMVEAA
MSNPILTSTLIILRGNSSSGKTTIAKQLQEHFGQGTLLVSQDVVRRDMLRVHDTMGNLSHDLLFEITKYGKGKCEFVILEGILNSHRYGEMLKELIRYFDENAFAYYFDLSLEETIRRHNTRDKRHEFGEDSLQKWYNPHDTIKVATETIFTDNFTQKDIFDAILNDVAIEKQALEHHHHHH
MTKIFAYAIREDEKPFLKEWEDAHKDVEVEYTDKLLTPETVALAKGADGVVVYQQLDYIAETLQALADNGITKMSLRNVGVDNIDMAKAKELGFQITNVPVYSPNAIAEHAAIQAARILRQDKAMDEKVARHDLRWAPTIGREVRDQVVGVVGTGHIGQVFMQIMEGFGAKVITYDIFRNPELEKKGYYVDSLDDLYKQADVISLHVPDVPANVHMINDESIAKMKQDVVIVNVSRGPLVDTDAVIRGLDSGKIFGYAMDVYEGEVGIFNEDWEGKEFPDARLADLIARPNVLVTPHTAFYTTHAVRNMVVKAFDNNLELVEGKEAETPVKVG
AKRYWNANLDTYHPKNVSQNRALLTIRVFVHNFNPEEGKGLTFVGSPGVGKTHLAVATLKAIYEKKGIRGYFFDTKDLIFRLKHLMDEGKDTKFLKTVLNSPVLVLDDLGSERLSDWQRELISYIITYRYNNLKSTIITTNYSLQREEESSVRISADLASRLGENVVSKIYEMNELLVIKGSDLR
SNTTEILTSVDVLGTHSQTGTQQSNMYTSTQKTELEIDNKDSVTECSKDMKEDGLSFVDIVLSKAASALDEKEKQLAVANEIIRSLSDEVMRNEIRITSLQGDLTFTKKCLENARSQISEKDAKINKLMEKDFQVNKEIKPY
MPQNYPWLNTEQPLSIKQLNGRVVILDFWTYCCINCLHVLPDLKYLEQKYKDSLTVIGVHSAKFDNEQETENIRQAILRYDIEHPVLVDKDFRVWQEYAVRAWPTLMVIDPKGYVIGYVSGEGNRDKLDQLITQVIQEHQGAINFQQLSLTLEKQRQPLITPLAFPGKVLATPSGLFVADSGHHRIVVSDFNGEILHLIGNGKSGLTDGNFQEAQFSAPQGMAFDMENQILYLADTENHALRRVDINQQTVETIAGTGEQSRNIQPHGGVGLETALNSPWDLVNIENSLYIAMAGVHQIWQMDLASGVIKTYAGTGVEACLDASLTESAFAQPSGITNNEQELYIADSEISSIRGVGLVEPQEVRTVCGSGGLFGFGDVDGQGEDVRLQHCLGVEYFQNYLWVADTYNHKIKSVSPHTGNCQTVLGDGLAGLQNGQGKNTRFFEPSGLSAIDSYLYISDTNNHVIRRVDLRTLEVTTMQFNGLCAPDVCIPNNFLEHHHHHH
GMDDQSGDQMRPELTMPPAEAEALRMAYEEAEVILEYGSGGSTVVAAELPGKHVTSVESDRAWARMMKAWLAANPPAEGTEVNIVWTDIGPTGDWGHPVSDAKWRSYPDYPLAVWRTEGFRHPDVVLVDGRFRVGCALATAFSITRPVTLLFDDYSQRRWQHQVEEFLGAPLMIGRLAAFQVEPQPIPPGSLMQLIRTMTSP
MCMVKVWVEKLLDEPELYILRLDDSEIKHFEAAWSIPEGITYNAYLMKVGDAVVLFDTWKGEYTEKFLESLSTLVDPKEITHIIVHHTEPDHSGALPKLLELNEYRAKLIGTTFAKNLLQGFYGDKVVENFHTIKDGEEVKIGNRTFRFITVPWLHWPDTMITYDVEDKLIFSCDAGGGYGIPEAIDDSDEDVVKKYLPYVTKYIVTVIGHYHKYIVQNIKKLKELGIIENANMILPGHGLIWRKSPTRIFEHYERVGAGIPTKDKVLVIYDSMYGFVEKRMSVVIEELKRYGKKPVVYRFTDKENPAISDILGEVPDSEALVIGVSTYEADIHPRMRCALYEILDKANYEKPVLIVGAFGWGGVAGKKVETLISRSKFELVDVVETKGRMTSEDEERLREAVRKLIQWQL
MSLTLKTTEDLFQQSLHEYTITHAIEDKNVLRFHVDYYKPDGKSTPKPGETLAKRAVVDAILSKHDAATGGRRFNAILATASINDAIGYFGLFKTAQAEKQRVEPGYVPLNIAAVFSPPSDVSADVRQLQEDLPQEQEDNKKDSDAKKAALKAIIGDYNTRFGTNHRIEEFDAYYQDVQQRIKDQQFPNADLPDKGREKLDIVIVVDMLLTGFDSKYLNTLYVDKNLKYHGLIQAFSRTNRVLNDTKPYGNILDFRGQQKEVDAAIALFSGAKADKAREIWLVDTAPVVIDKLKEARGSLDSFLASQGLGGKPEDIANLKGTAAKVAFIKHFKDVQKLQTQLDQYTDLTAEQQAQVEAILPKDELRSFRGQYLQKAEELRADQKKAGEGHHHHHH

Soluble on expression in E. coli, not soluble:
MSLTVFKSPITGRTYHLVFNDEFDDGVIDTLKWDTRSRRSPFTRRGMYQEKPYYVLCHEDWTKELHGELRLEVSKYPTQNNVVMTGGILSLGRFMARYGYYETKASFRDCIGEGYWPAFWIHFDEADKYGKGTEIDVFEYIPKDKQIFQTLHWYKKQAMEEQQSEVQHAALDYDKSGQFKEHRSSTKYFVLDEAQSKEHTFAVEWTPEELIFYTDGKVTRRVNRKDDPKQVPSAYQMVYFSCSAGEWGGNVMENQVPAYVYFDYCRCYQESDQDAIYTVKGNGMKVPASRRVGKEGHHHHHH
MKRHFRPSLIKTEAWEGYEFADKEIKITESTDCYGAVLWPSAMVLCHFLDSHRDQYNLLDKKIIELGAGTGLVTIVTSLLGAQVTSTDLPDVLANLRHNVNRNTRGRCRHEPQVTELIWGQQLEERFPRYTCQYDYILAADVVYGHPYLQELLETFIHLCSDHTVILWAMRFRLDPENRFVHTFQEHFHLEELYDLPSLSIKLYRAHKR
MGSDKIHHHHHHAATYQVKKLMGFRHPTSYYAKSAKSGYLWNKSHTKRLHNLKNYPKTTWYATAKYSMKSVRNSGTYLKVTNGTGKAKGYVWTGYLKKGVNPANPNGTLTDPFGAAMSTYNVDDNLNKQLLNLFPGTIPDEPLQLAADFIFANAGANPDDYTSVIEELVGAENEPSVFRLSSDKRIQKNQNFLSFQRNSLKEELVTKHKKFTSFKGYRIGAYAFPKHDKRYGESMILLLPSN
MAMSIELRTKYGQIDISNEVIAMVAGGAAVDCYGIVGSKNQIKDGLTEILRKENFSRGVQVRQEGEQIHIDMYIIVSYGTKISEVAHNVQTKVKYTVNQTIGLAVDSVNIYVQGVRVTNPLEHHHHHH
MNDTLPGRISRERRGHLLLLGLDRVAKRNAFDLPMLDDLVAALGEYEADDQLRCALLFAHGEHFTAGLDLANVGETFRQGWKLPEGAVDPWGTFGGRRPSKPLVVAVQGYCYTIGIELMLAADINLCASNARFAQLEVQRGILPFGGATLRMHQVAGWGNAMRWLLTGDEFDAHEAYRLGLVQEVTAPEDLLDHAIALAERVAAQAPLGVRATLGSARQALLEGEAVAAAALPEAARRLLDSEDAKEG
MNKLRRQLSMNSLLIDTSNQPLSVALMQNDEVLAEITTDSKQNHSVQLMPAISQLFEQSKIAKQQLDAIIVAEGPGSYTGLRIGVTVAKTLAYALDVKLYGVSSLKALAATIDHTDKLLVPVFDARRQAVYTGIFQWQNGQLVTILEDQYMSIEALRAFLEDLNQPFIYIGKDTIKLQDELQGEVIAQLPNASVMYQLIDKPTDVHTFTPKYHKLAEAERNWINSQKNN
MIDIIANIASILGFTMQMNDKFFAHGMNKEQADNEMLLLFLKQLSVKSKAIKEIHQKYHSLSNDFRLVAVFLTNPVIYEKIVTNRSRALRNALKESLQTPSARIAQTQLSAQLRPCFENLLVSIKDESHLSVEFSGINDCEMKAILRKILNAQKEIFQLHQQFCGIMKTIGSYPLGNWGDSEFDFIKTNQRVFISDFYSIIDYADIILMGYLDIYHCALNLK
MKKRLSILIAGLASLSVNAATEPWASPEAEVLSRAQIQQVQGKQTYTYVRCWYRPAATHDDPYTTWEWAKNADGSYYTIQGYWWSSIRQKNMFYTTVQPETLLERCEETLGVNHDFADITYFAADHRFSYNHTIWSNDPEVQSNRISKVIAFGDSLSDTGNIFNASQWRFPNPDSWFLGHFSNGFVWTEYLAQGLNVPLYNWAVGGAAGRNQYVALTGVYEQVSSYLSYMRLAKNYQPENSLFTLEFGLNDFMNYNRSLADVKADYSSALIRLIDAGAKNLVLMTLPDATRAPQFQYATQEQIDTVRSKIIGMNAFIREQARYYQMQGIRIVLFDAYTLFDSITTQPEQHGFANANSPCLDIRRNSAADYLLSHSLSAECAKQGSDRFVFWEVTHPTTAIHHYLAEQILATEMAQFPL
MGSDKIHHHHHHMLDPIEFIHNASSISKKSMNRLKLKTNPFSEKPIRGNTKFFVGRTSELSEIADILGAAQYGSVANAAIVGTKGIGKSSILNILYYASKRHNHWVVELEASQITARQFLIQLMYGIIKDNLFSVDGTLSSDYMKHSQKIIEIYKRLSNYSDKTPVHYPREKIERDLKYLLNEVKEENKLCVILIDEADQFAKRSCLGLLQFFHSFLYEDDILTFLAGPPTMVEDLTKISPAIRDRIPKIINMPPLTKEEAYDLIKRRLEDSQITGAKGYQPFSEQSIEKIIEECDGIPRRIIMTCSEAVSLGLKNGVDEIDDEIARNAMKNLGISVGHQILNHLTPAQSKIIKAMAELGGSSTVTELSGILNNSTGTIGTHLSDIYEMGYIYKERDGYNVYYTLSKELKDVLITKEDIS
MGSDKIHHHHHHMSLLDKLRELGISENLIKEIEKFRSQYPVDKEYESRIPVPTQFYYGSDVWEQAITAVLCGENLLLVGEKATGKNLFAENLAGVFNRPRWDVSFHVNMDAASLIGTDTFSAGEVTFRPGPVYTAAKTGGFAVLDEINMAKSEAMAVLHATLDFRRTIDVPGYDRLSLHPATRFIATMNYGYAGTKELNEALVSRFAVIRMPMISKESLVKLIKEHYPTIREAGANELAEVFLELHTKCKNGEISSKALDLRGLIGSIGMMEKGLNIYAALDMGITNKSFDEYEQTLIRDTIRARISRKMSREQLFC
